Positions count from the first letter of the chain named. Like-named read-outs stand apart in the source and are kept apart here.
B1: Antibody 3C12 (antibody, V domains shown)
VH: QVQLKESGPGLVAPSQSLSITCTVSGFSLTSYGVHWVRQSPGKGLEWLGVIWAGGTTNYNSALMSRLSISKDNSKSQVFLKMNSLQADDTAMYYCARGGYGHSMDYWGQGTSVTVSS
VL: DIVMTQSHKFMSTSVGDRVSITCKASQDVSNAVAWYQQKPGQSPKLLIYSASYRYTGVPDRFTGSGSGTDFIFTISSVQAEDLAVYYCQQHYSTPFTFGSGTKLEIK
notes: Mouse hybridoma mAb purified from ascites
B2: Antibody 14F1 (antibody, V domains shown)
VH: B1 VH with S31T, S40P, A53T, T56S, S70I, A87T, M92I, S103T
VL: B1 VL with N31I, S43F, S65G, I72T
notes: as for B1
B3: Antibody 6H8 (antibody, V domains shown)
VH: QIQLVQSGPELKKPGETVRISCKASGYTFTNYGMNWVKQAPGKGLKWMGWINTYTGEPTYADDFRGRFALSLEPSASTASLQINNLKNEDTATYFCARYYDYDYFDYWGQGTTLTVSS
VL: DIVMTQSPSSLRVSAGEKVTMSCKSSQSLLNGGNQKNYLAWYQQKPGQPPKVLIYGASTRVSGVPDRFTGRGSGIDFTLTISSVEAEDLAVYYCQNDLSYPLTFGAGTKLELK
notes: as for B1
B4: Antibody h#2B1 (antibody, V domains shown)
VH: EVQLVESGGGLVQPGGSLRLSCAVSGYSITSGYYWNWIRQAPGKGLEWVAYISYDGNNNYNPSLKNRFTISRDASKNTVYLQMNSLRAEDTAVYYCAREESTMITTAWFAYWGQGTLVTVSS
VL: DIQMTQSPSSLSASVGDRVTITCRASENIYSNLAWYQQKPGKAPKLLIYGATNLASGVPSRFSGSGSGTDYTLTISSLQPEDFATYYCQHFWDTPYTFGQGTKVEIK
notes: Humanized variant of 11B12
B5: Antibody h#2D2 (antibody, V domains shown)
VH: B4 VH with V79F
VL: B4 VL
notes: Humanized variant of 11B12
B6: Antibody h#2E2 (antibody, V domains shown)
VH: B4 VH with A74T
VL: B4 VL
notes: Humanized variant of 11B12
B7: Antibody 7C12 (antibody, V domains shown)
VH: EVQLQQSGPDLVKPGASVKISCKASGYIFTDFNMHWVKQSHGKSLEWIGYIYPFNGGTGYNQKFENMATLTVDISSSTAYMEVRSLTSEDSAVYYCARRGGRGHFDYWGQGTTLTVSS
VL: DIQMTQSPASLSASVGETVTVTCRASGNIHNYLAWYQQKQGKSPQLLVYNAKTLADGVPSRFSGSGSGIQFSLKINSLQPEDFGSYYCQHFWNTPFTFGSGTKLEIK
notes: as for B1
B8: Antibody 15A6 (antibody, V domains shown)
VH: EVKLVESGGDLVKPGGSLKLSCAASGFTFSTYGMSWVRQTPEKRLEWVATISGSNSYTYYPDSVKGRFTISRDNAKNNLYLQMSSLRSEDTALYYCTRHENGYYFYAMDYWGQGTSVTVSS
VL: DVQITQSPSYLTASPGETITINCRSSKSITKYLAWYQEKPGKTNKLLIYSGSTLQSGIPSRFSGSGSGTDFTLTISSLEPEDFAMYYCQQHSEYPWTFGGGTRLEIK
notes: as for B1
B9: Antibody 2C1 (antibody, V domains shown)
VH: EVKLVEPGGGLVQPGGSLRLSCATSGFTFSDFYMGWVRQPPGKRLEWIAASGNKAHDYATEYSASVKGRFFVSRDTFQSILYLQMNALRAEDTAIYYCARSYYYGSSAWFTYWGQGTLVTVSV
VL: DIVMTQSHKFMSTSIRDRVTIACKASQDVGTAVAWYQQKPGQSPKLLIFWASTRHAGVPDRFTGSGSGTDFTLTISNVQSEDLTDYFCQQYSSYPLTFGAGTKLELK
notes: as for B1

What was measured:
[1] = target: LILRB2 antigen of the ELISA of Table 5 (format not specified) (UniProt Q8N423 22-460, limits assumed); assay: ELISA, antibody titration
Chain of LILRB2 antigen of the ELISA of Table 5 (format not specified) (Q8N423 22-460 limits assumed): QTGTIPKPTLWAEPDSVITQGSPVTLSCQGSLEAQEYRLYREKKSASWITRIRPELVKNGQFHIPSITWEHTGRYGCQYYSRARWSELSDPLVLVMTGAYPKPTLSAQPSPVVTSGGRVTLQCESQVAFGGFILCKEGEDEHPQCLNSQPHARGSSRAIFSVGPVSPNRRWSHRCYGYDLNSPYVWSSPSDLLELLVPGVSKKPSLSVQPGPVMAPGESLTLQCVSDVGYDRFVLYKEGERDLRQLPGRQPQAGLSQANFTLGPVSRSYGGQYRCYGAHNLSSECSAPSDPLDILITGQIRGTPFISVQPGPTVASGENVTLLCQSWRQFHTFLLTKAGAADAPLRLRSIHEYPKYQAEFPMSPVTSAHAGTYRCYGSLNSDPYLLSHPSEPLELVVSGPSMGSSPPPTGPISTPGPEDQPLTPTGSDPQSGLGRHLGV

[2] = target: T1, human LILRB1 expressed on 293T cells (human, UniProt Q8NHL6 24-650); assay: cell ELISA on fixed 293T transfectants, OD490
T1 construct: whole, on cells
T1 sequence (Q8NHL6 24-650): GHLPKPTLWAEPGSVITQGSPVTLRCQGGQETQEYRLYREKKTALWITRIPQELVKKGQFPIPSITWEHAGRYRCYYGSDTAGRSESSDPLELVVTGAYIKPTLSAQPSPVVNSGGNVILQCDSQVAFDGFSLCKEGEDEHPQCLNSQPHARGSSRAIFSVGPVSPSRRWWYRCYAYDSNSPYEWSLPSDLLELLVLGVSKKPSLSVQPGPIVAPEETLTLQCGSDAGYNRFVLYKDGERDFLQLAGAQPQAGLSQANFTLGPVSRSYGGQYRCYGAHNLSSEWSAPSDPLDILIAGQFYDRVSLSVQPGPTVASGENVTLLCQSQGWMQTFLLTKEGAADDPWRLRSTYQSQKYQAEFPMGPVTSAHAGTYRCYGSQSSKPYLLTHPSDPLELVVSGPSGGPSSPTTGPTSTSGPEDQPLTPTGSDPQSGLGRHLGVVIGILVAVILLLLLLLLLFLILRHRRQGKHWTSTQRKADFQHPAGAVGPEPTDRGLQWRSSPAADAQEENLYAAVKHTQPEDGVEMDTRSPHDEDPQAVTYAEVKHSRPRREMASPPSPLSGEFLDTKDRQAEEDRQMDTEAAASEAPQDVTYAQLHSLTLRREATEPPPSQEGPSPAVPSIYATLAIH
Method: (§1) The cells were then immobilized with glutaraldehyde in the presence of 5% defatted milk at room temperature for 2 hours. An anti-LILRB2 antibody (2 μg/ml) was added to each well and incubated at room temperature for 2 hours. An HRP-labelled goat anti-mouse secondary antibody was then added into each well and incubated at room temperature for one hour. An HRP substrate, o-phenylenediamine dihydrochloride (OPD) was then added to each well. The plate was incubated at room temperature for 15 min to allow color development and OD₄₉₀ values were determined.

[3] = target: T2, human LILRB3 expressed on 293T cells (human, UniProt O75022 24-631); assay: cell ELISA on fixed 293T transfectants, OD490
T2 construct: whole, on cells
Method: as §1

LILRB1-His = target: T3, LILRB1-His; assay: ELISA on recombinant His-tagged protein, OD450
T3 construct: also called His-tagged LILRB1; recombinant LILRB1 protein
T3 sequence (chain, as listed by the source limits assumed): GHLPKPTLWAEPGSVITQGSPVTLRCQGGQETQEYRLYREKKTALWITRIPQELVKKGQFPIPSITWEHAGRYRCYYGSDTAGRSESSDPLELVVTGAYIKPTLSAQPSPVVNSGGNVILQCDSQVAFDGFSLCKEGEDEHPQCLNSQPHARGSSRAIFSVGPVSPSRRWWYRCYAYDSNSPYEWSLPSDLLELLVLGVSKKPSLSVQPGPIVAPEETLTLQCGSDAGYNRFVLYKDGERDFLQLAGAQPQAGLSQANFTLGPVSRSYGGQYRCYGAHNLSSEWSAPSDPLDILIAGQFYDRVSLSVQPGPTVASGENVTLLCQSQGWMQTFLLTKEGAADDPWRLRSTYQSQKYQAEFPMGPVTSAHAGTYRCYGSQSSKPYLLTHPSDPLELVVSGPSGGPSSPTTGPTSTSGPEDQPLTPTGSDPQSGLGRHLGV

LILRB3-His = target: T4, LILRB3-His; assay: ELISA on recombinant His-tagged protein, OD450
T4 construct: also called His-tagged LILRB3; recombinant LILRB3 protein

[4] = target: T1, human LILRB1 expressed on 293T cells; assay: cell ELISA, 293T-LILRB1 cells, antibody 2 ug/ml
Method: as §1

[5] = target: T5, human LILRB2 expressed on cells (293T-LILRB2, CHO-K1-LILRB2) (human, UniProt Q8N423 22-597); assay: cell ELISA, 293T-LILRB2 cells, antibody 2 ug/ml
T5 construct: whole, on cells; the cell line is named under assay; also called HEK293T-LILRB2
T5 sequence (Q8N423 22-597): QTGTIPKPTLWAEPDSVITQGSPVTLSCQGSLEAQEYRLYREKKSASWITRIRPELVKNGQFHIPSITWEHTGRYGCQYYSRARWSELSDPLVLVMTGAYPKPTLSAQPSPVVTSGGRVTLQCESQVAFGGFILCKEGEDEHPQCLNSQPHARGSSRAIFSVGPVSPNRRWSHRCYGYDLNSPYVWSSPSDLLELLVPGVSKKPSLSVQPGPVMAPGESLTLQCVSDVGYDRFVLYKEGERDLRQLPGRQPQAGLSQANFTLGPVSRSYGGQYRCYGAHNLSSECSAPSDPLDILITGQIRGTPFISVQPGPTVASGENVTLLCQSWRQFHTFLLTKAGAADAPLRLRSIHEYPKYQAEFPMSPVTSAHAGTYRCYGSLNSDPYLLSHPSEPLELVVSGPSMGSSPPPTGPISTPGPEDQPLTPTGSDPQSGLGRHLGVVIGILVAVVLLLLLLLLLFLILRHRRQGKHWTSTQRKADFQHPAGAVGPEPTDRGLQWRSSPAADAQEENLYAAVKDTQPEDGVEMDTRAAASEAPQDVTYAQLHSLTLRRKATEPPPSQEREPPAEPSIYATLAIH
Method: as §1

[6] = target: T2, human LILRB3 expressed on 293T cells; assay: cell ELISA, 293T-LILRB3 cells, antibody 2 ug/ml
Method: as §1

[7] = target: T1, human LILRB1 expressed on 293T cells; assay: flow cytometry on 293T transfectants, MFI
Method: (§2) The cells were then immobilized with glutaraldehyde in the presence of 5% defatted milk at room temperature for 2 hours. An anti-LILRB2 antibody (5 μg/ml) was added to each well and incubated at room temperature for 1 hours. An Alex Flour®-labelled goat anti-mouse secondary antibody (1:2,000 dilution) was then added into each well and incubated at room temperature for 30′. The cells were washed twice with PBS after the staining. Fluorescence intensities (MFI) were measured.

[8] = target: T2, human LILRB3 expressed on 293T cells; assay: flow cytometry on 293T transfectants, MFI
Method: as §2

LILRB2-Fc fusion protein = target: T6, LILRB2-Fc fusion protein (human, UniProt Q8N423 22-460, limits assumed); assay: ELISA, blockade of LILRB2-Fc binding to coated His-ANGPTL2
T6 construct: not shown: Fc
T6 sequence (Q8N423 22-460 limits assumed): as the sequence (Q8N423 22-460 limits assumed) above
Method: His-tagged ANGPTL2 protein (1 μg/ml) was placed in a 96-well plate ([…]) and incubated at 4° C. overnight. Afterwards, LILRB2-Fc fusion protein at 0.25 mg/ml was incubated with the anti-LILRB2 antibody at various concentrations at room temperature for one hour and then added into the His-ANGPTL2 coated plate. The plate was placed in a shaker at 500 rpm for 2 hours at room temperature. HRP-labelled goat anti-human Fc antibody (1:10,000 dilution) was added to the plate (100 μl/well). After incubation at room temperature for 1 hour, TMB was added for color development.
Clones 11B12, 9B6, 9H6, and 14F1 were selected for dose-dependent blockade assays. A mouse IgG (mIgG) antibody was used as a negative control. […] The IC₅₀ values are around 1 nM. […] (ix) Exemplary Anti-LILBR2 Antibodies Enhanced TNFα Expression and Suppressed IL-10 Expression in LPS-Stimulated PBMCs

[9] = target: T5, human LILRB2 expressed on cells …; assay: flow cytometry, blockade of PE-HLA-G tetramer binding to 293T-huLILRB2 cells
Method: Pre-experimentation was performed to determine parameters for this assay. […] The cells were washed twice and then analysed by flow cytometry. […] FIG. 3C.
A mouse IgG (mIgG) antibody was used as a negative control.

[10] = target: T5, human LILRB2 expressed on cells …; assay: flow cytometry on 293T-LILRB2 cells, serial dilution, APC anti-human IgG; fit table under the graph
Description: (§3) The cells were washed and then subject to flow cytometry to measure levels of fluorescent signals.

[11] = target: T5, human LILRB2 expressed on cells …; assay: flow cytometry, blockade of His-tagged HLA-G tetramer binding to 293T-LILRB2 cells; fit table under the graph
Method: (§4) Serial diluted humanized LILRB2 antibodies were then added to the mixture and incubated at room temperature for another 45 minutes. The binding of HLA-G/LILRB2 was detected afterwards using a secondary PE-labeled anti-His tag antibody via flow cytometry.

[12] = target: T5, human LILRB2 expressed on cells …; assay: flow cytometry, blockade of His-tagged HLA-G tetramer binding to 293T-LILRB2 cells; fit table under the graph, row headed EC50
Method: as §4

[13] = target: T5, human LILRB2 expressed on cells …; assay: flow cytometry on 293T-LILRB2 cells, serial dilution, APC anti-human IgG; fit table under the graph; remark: listed apart in the source
Description: as §3

[14] = target: T7, His-tagged human LILRB2 polypeptide (human, UniProt Q8N423 22-460); assay: SPR, antibody on CM5 chip, His-LILRB2 analyte, 1:1 model
T7 construct: SPR analyte; also called His-tagged human LILBR2 polypeptide; not shown: His tag
T7 sequence (Q8N423 22-460 limits assumed): as above
Method: Surface plasmon resonance (SPR) was used to examine binding activities of exemplary anti-LILBR2 antibodies disclosed herein. Briefly, the anti-LILBR2 antibody was diluted in a coating buffer to a concentration of 30 μg/ml, loaded onto CM5 chips at 10 μl/min to allow coating of the antibody on the surface of the CM5 chip. […] Binding affinity was measured based on the 1:1 binding model.

Binder | Kd [1] | binding result [2] | binding result [3] | binding result (LILRB1-His) | binding result (LILRB3-His) | Span [11] | EC50 [12] | further results
B1 | 5.01 nM | no binding (tested: 2 µg/ml) | no binding (tested: 2 µg/ml) | no binding | no binding |  |  | 
B2 | 1.24 nM |  |  | no binding | no binding |  |  | OD490 [4]: 0.172 OD490; OD490 [5]: 1.21 OD490; OD490 [6]: 0.172 OD490; binding result [7]: no binding (tested: 5 µg/ml); binding result [8]: no binding (tested: 5 µg/ml); IC50 (LILRB2-Fc fusion protein): 0.942 nM; IC50 [9]: 0.82 nM
B3 | 5.7 nM | no binding (tested: 2 µg/ml) | no binding (tested: 2 µg/ml) | no binding | no binding |  |  | 
B4 |  |  |  |  |  | 8850 RFU | 0.219 nM | Bmax [10]: 606000 RFU; Kd [10]: 0.256 nM
B5 |  |  |  |  |  | 7640 RFU | 0.131 nM | Bmax [13]: 608000 RFU; Kd [13]: 0.362 nM
B6 |  |  |  |  |  | 8780 RFU | 0.389 nM | Bmax [10]: 615000 RFU; Kd [10]: 0.317 nM
B7 | 0.631 nM | no binding (tested: 2 µg/ml) | no binding (tested: 2 µg/ml) |  |  |  |  | Kd [14]: 0.792 nM; koff [14]: 0.000209 s⁻¹; kon [14]: 263000 M⁻¹ s⁻¹
B8 | 0.725 nM | no binding (tested: 2 µg/ml) |  |  |  |  |  | Kd [14]: 5.45 nM; koff [14]: 0.00137 s⁻¹; kon [14]: 251000 M⁻¹ s⁻¹
B9 |  | no binding (tested: 2 µg/ml) | no binding (tested: 2 µg/ml) |  |  |  |  | 

Reference: patent US20240109962A1 (SPARX BIOSCIENCE, published 2024)
